# In patent US20150344570A1 (published 2015):
# Tests used:
# FcγRIIIa [1] = target: T1, FcγRIIIa (human, UniProt P08637 17-208); experiment: ratio of SPR KDs: KD of GpH7-G1d/GpL16-k0 divided by KD of this antibody
# T1 construct: extracellular domain; also called FcgRIIIa; CD16A; not shown: His tag attached to the C terminus
# Method: (§1) The prepared antibodies were compared for the FcγRIIIa-binding activity using, as an indicator, KD for FcγRIIIa that was determined according to the method described in Reference Example 2.
# (§2) Analysis of interaction between objective antibody and the FcγR was carried out using Biacore T100 (GE Healthcare). HBS-EP+ (GE Healthcare) was used as the running buffer, and the measurement temperature was set to 25° C. Chips produced by immobilizing the antigen peptide by the amine coupling method to a Series S Sencor Chip CM5 (GE Healthcare), or alternatively, chips produced by allowing preliminarily biotinylated antigen peptides to interact with and immobilize onto a Series S Sensor Chip SA (certified) (GE Healthcare) were used. Antibodies of interest were captured onto an antigen peptide-immobilized chip, and allowed to interact to each FcγR diluted with running buffer. To regenerate and repeatedly use the chip, the antibodies captured on the chip were washed off by reacting 10 mM glycine-HCl, pH 1.5.
# (§3) Specifically, to calculate association rate constant ka (L/mol/s) and dissociation rate constant kd (1/s), sensorgrams obtained by measurement were processed for global fitting by Biacore Evaluation Software using 1:1 Langmuir binding model and dissociation constant KD (mol/1) was calculated from the resulting values.
# FcγRIIIa [2] = target: T1, FcγRIIIa; experiment: SPR (Biacore), antibody captured on antigen-peptide chip, FcγR as analyte; relative binding amount
# Method: GpH7-TA8 (SEQ ID NO: 33) and GpH7-B12 (SEQ ID NO: 12) resulting from the introduction of P329R into GpH7-TA7 and GpH7-B3, respectively, were prepared according to the method described in Reference Example 1.
# as §2
# FcγRIIIa [3] = target: T1, FcγRIIIa; experiment: ratio of SPR KDs: KD of GpH7-A5/GpH7-B3/GpL16-k0 divided by KD of this antibody
# Method: as §1, §2, §3
# FcγRIIIa [4] = target: T1, FcγRIIIa; experiment: SPR (Biacore), antibody captured on antigen-peptide chip, FcγR as analyte; relative binding amount; remark: listed apart in the source
# Method: Specifically, GpH7-TA7 and GpH7-TA45 (SEQ ID NO: 32) resulting from the introduction of L234Y, G236W, and S298A into GpH7-A5 and GpH7-B3, respectively, were prepared according to the method described in Reference Example 1. […] These antibodies were compared for the FcγRIIIa binding according to the method described in Reference Example 2 (Table 10).
# as §2
# [5] = target: T2, FcγRIIIa extracellular domain with C-terminal His tag (human, UniProt P08637 17-208); experiment: SPR (Biacore), ratio of KD for FcγRIIIa against GpH7-A5/GpH7-B3/GpL16-k0
# T2 construct: extracellular domain; also called FcgRIIIa; 3a; not shown: His tag attached to the C terminus
# From the text: Then, the present inventors introduced I332E into only one H chain, and assessed whether the Tm is elevated as compared to when I332E is introduced into both H chains. Expression vectors inserted with GpH7-A44 (SEQ ID NO: 49) and GpH7-B80 (SEQ ID NO: 50) resulting from the introduction of I332E into GpH7-A5 and GpH7-B3, respectively, were constructed. They were combined with GpH7-B3, GpH7-A5, and GpL16-k0 to express and prepare the following antibodies according to the method described in Reference Example 1: the heterodimerized antibodies GpH7-A5/GpH7-B80/GpL16-k0 and GpH7-A44/GpH7-B3/GpL16-k0 in which only one of the H chains was introduced with I332E, and the homodimerized antibody GpH7-A44/GpH7-B80/GpL16-k0 in which both of the H chains were introduced with I332E. […] Each antibody was assessed for the FcγRIIIa-binding activity according to the method described in Reference Example 2. In addition, the antibodies were compared for the Tm of CH2 domain by thermal shift assay according to the method described in Reference Example 5 (Tables 28 and 29).
# as §2
# The FcγR-binding activity of each antibody was assessed primarily using as an indicator the FcγR-binding activity and dissociation constant for FcγR.
# T1 sequence (P08637 17-208): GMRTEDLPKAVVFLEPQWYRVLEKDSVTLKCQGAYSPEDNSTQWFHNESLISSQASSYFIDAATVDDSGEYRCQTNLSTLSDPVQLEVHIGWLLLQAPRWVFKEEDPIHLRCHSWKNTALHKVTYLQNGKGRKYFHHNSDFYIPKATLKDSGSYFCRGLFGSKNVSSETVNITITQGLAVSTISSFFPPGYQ
# T2 sequence (P08637 17-208): as above
KD ratio 1 (FcγRIIIa [1]),FcγRIIIa BINDING ACTIVITY (relative) (FcγRIIIa [2]),KD ratio 2 (FcγRIIIa [3]),FcγR BINDING ACTIVITY (relative FcγRIIIa binding) (FcγRIIIa [4]),KD ratio [5],Binder
0.75 fold,"100 relative, GpH7-A5/GpH7-B3/GpL16-k0 = 100",1 fold,"100 relative, GpH7-A5/GpH7-B3/GpL16-k0 = 100",,"GpH7-A5/GpH7-B3/GpL16-k0 (antibody, human IgG1, kappa, also called HeCon Ab; control heterodimerized antibody) heavy 1: not shown heavy 2: not shown light: DIVMTQSPLSLPVTPGEPASISCQASESLVHSNRNTYLHWYLQKPGQSPQLLIYKVSNRFSGVPDRFSGSGSGTDFTLKISRVEAEDVGVYYCSQNTHVPPTFGQGTKVEIERTVAAPSVFIFPPSDEQLKSGTASVVCLLNNFYPREAKVQWKVDNALQSGNSQESVTEQDSKDSTYSLSSTLTLSKADYEKHKVYACEVTHQGLSSPVTKSFNRGEC [GpH7-A5/GpH7-B3/GpL16-k0, listing 1 of 2 here]"
,,,,1 fold (KD of GpH7-A5/GpH7-B3/GpL16-k0 divided by KD of the antibody),"GpH7-A5/GpH7-B3/GpL16-k0 (antibody, human IgG1, kappa, also called HeCon Ab; control heterodimerized antibody) heavy 1: not shown heavy 2: not shown light: DIVMTQSPLSLPVTPGEPASISCQASESLVHSNRNTYLHWYLQKPGQSPQLLIYKVSNRFSGVPDRFSGSGSGTDFTLKISRVEAEDVGVYYCSQNTHVPPTFGQGTKVEIERTVAAPSVFIFPPSDEQLKSGTASVVCLLNNFYPREAKVQWKVDNALQSGNSQESVTEQDSKDSTYSLSSTLTLSKADYEKHKVYACEVTHQGLSSPVTKSFNRGEC [GpH7-A5/GpH7-B3/GpL16-k0, listing 2 of 2 here]"
3.8 fold,"210 relative, GpH7-A5/GpH7-B3/GpL16-k0 = 100",5.1 fold,"210 relative, GpH7-A5/GpH7-B3/GpL16-k0 = 100",,"GpH7-TA7/GpH7-B3/GpL16-k0 (antibody, human IgG1, kappa, Anti-glypican-3 IgG1 heterodimer; L234Y/G236W/S298A in H1 only) heavy 1: QVQLVQSGAEVKKPGASVTVSCKASGYTFTDYEMHWIRQPPGEGLEWIGAIDPKTGDTAYSESFQDRVTLTADKSTSTAYMELSSLTSEDTAVYYCTRFYSYTYWGQGTLVTVSSASTKGPSVFPLAPSSKSTSGGTAALGCLVKDYFPEPVTVSWNSGALTSGVHTFPAVLQSSGLYSLSSVVTVPSSSLGTQTYICNVNHKPSNTKVDKKVEPKSCDKTHTCPPCPAPEYLWGPSVFLFPPKPKDTLMISRTPEVTCVVVDVSHEDPEVKFNWYVDGVEVHNAKTKPREEQYNATYRVVSVLTVLHQDWLNGKEYKCKVSNKALPAPIEKTISKAKGQPREPQVYTLPPSRKELTKNQVSLTCLVKGFYPSDIAVEWESNGQPENNYKTTPPVLDSDGSFFLYSKLTVDKSRWQQGNVFSCSVMHEALHNRYTQKSLSLSP heavy 2: not shown light: DIVMTQSPLSLPVTPGEPASISCQASESLVHSNRNTYLHWYLQKPGQSPQLLIYKVSNRFSGVPDRFSGSGSGTDFTLKISRVEAEDVGVYYCSQNTHVPPTFGQGTKVEIERTVAAPSVFIFPPSDEQLKSGTASVVCLLNNFYPREAKVQWKVDNALQSGNSQESVTEQDSKDSTYSLSSTLTLSKADYEKHKVYACEVTHQGLSSPVTKSFNRGEC"
,"11 relative, GpH7-A5/GpH7-B3/GpL16-k0 = 100",,,,"GpH7-TA7/GpH7-B12/GpL16-k0 (antibody, human IgG1, kappa, Anti-glypican-3 IgG1 heterodimer; L234Y/G236W/S298A in H1, P329R in H2) heavy 1: QVQLVQSGAEVKKPGASVTVSCKASGYTFTDYEMHWIRQPPGEGLEWIGAIDPKTGDTAYSESFQDRVTLTADKSTSTAYMELSSLTSEDTAVYYCTRFYSYTYWGQGTLVTVSSASTKGPSVFPLAPSSKSTSGGTAALGCLVKDYFPEPVTVSWNSGALTSGVHTFPAVLQSSGLYSLSSVVTVPSSSLGTQTYICNVNHKPSNTKVDKKVEPKSCDKTHTCPPCPAPEYLWGPSVFLFPPKPKDTLMISRTPEVTCVVVDVSHEDPEVKFNWYVDGVEVHNAKTKPREEQYNATYRVVSVLTVLHQDWLNGKEYKCKVSNKALPAPIEKTISKAKGQPREPQVYTLPPSRKELTKNQVSLTCLVKGFYPSDIAVEWESNGQPENNYKTTPPVLDSDGSFFLYSKLTVDKSRWQQGNVFSCSVMHEALHNRYTQKSLSLSP heavy 2: not shown light: DIVMTQSPLSLPVTPGEPASISCQASESLVHSNRNTYLHWYLQKPGQSPQLLIYKVSNRFSGVPDRFSGSGSGTDFTLKISRVEAEDVGVYYCSQNTHVPPTFGQGTKVEIERTVAAPSVFIFPPSDEQLKSGTASVVCLLNNFYPREAKVQWKVDNALQSGNSQESVTEQDSKDSTYSLSSTLTLSKADYEKHKVYACEVTHQGLSSPVTKSFNRGEC"
,,,,3.4 fold (KD of GpH7-A5/GpH7-B3/GpL16-k0 divided by KD of the antibody),"GpH7-A5/GpH7-B80/GpL16-k0 (antibody, human IgG1, kappa, Heterodimerized antibody with I332E in one H chain only) heavy 1: not shown heavy 2: not shown light: DIVMTQSPLSLPVTPGEPASISCQASESLVHSNRNTYLHWYLQKPGQSPQLLIYKVSNRFSGVPDRFSGSGSGTDFTLKISRVEAEDVGVYYCSQNTHVPPTFGQGTKVEIERTVAAPSVFIFPPSDEQLKSGTASVVCLLNNFYPREAKVQWKVDNALQSGNSQESVTEQDSKDSTYSLSSTLTLSKADYEKHKVYACEVTHQGLSSPVTKSFNRGEC"
0.37 fold,,0.49 fold,"48 relative, GpH7-A5/GpH7-B3/GpL16-k0 = 100",,"GpH7-TA7/GpH7-TA45/GpL16-k0 (antibody, human IgG1, kappa, Anti-glypican-3 IgG1; The two chains differ only in D356K/H435R and K439E) heavy 1: QVQLVQSGAEVKKPGASVTVSCKASGYTFTDYEMHWIRQPPGEGLEWIGAIDPKTGDTAYSESFQDRVTLTADKSTSTAYMELSSLTSEDTAVYYCTRFYSYTYWGQGTLVTVSSASTKGPSVFPLAPSSKSTSGGTAALGCLVKDYFPEPVTVSWNSGALTSGVHTFPAVLQSSGLYSLSSVVTVPSSSLGTQTYICNVNHKPSNTKVDKKVEPKSCDKTHTCPPCPAPEYLWGPSVFLFPPKPKDTLMISRTPEVTCVVVDVSHEDPEVKFNWYVDGVEVHNAKTKPREEQYNATYRVVSVLTVLHQDWLNGKEYKCKVSNKALPAPIEKTISKAKGQPREPQVYTLPPSRKELTKNQVSLTCLVKGFYPSDIAVEWESNGQPENNYKTTPPVLDSDGSFFLYSKLTVDKSRWQQGNVFSCSVMHEALHNRYTQKSLSLSP heavy 2: QVQLVQSGAEVKKPGASVTVSCKASGYTFTDYEMHWIRQPPGEGLEWIGAIDPKTGDTAYSESFQDRVTLTADKSTSTAYMELSSLTSEDTAVYYCTRFYSYTYWGQGTLVTVSSASTKGPSVFPLAPSSKSTSGGTAALGCLVKDYFPEPVTVSWNSGALTSGVHTFPAVLQSSGLYSLSSVVTVPSSSLGTQTYICNVNHKPSNTKVDKKVEPKSCDKTHTCPPCPAPEYLWGPSVFLFPPKPKDTLMISRTPEVTCVVVDVSHEDPEVKFNWYVDGVEVHNAKTKPREEQYNATYRVVSVLTVLHQDWLNGKEYKCKVSNKALPAPIEKTISKAKGQPREPQVYTLPPSRDELTKNQVSLTCLVKGFYPSDIAVEWESNGQPENNYKTTPPVLDSDGSFFLYSKLTVDKSRWQQGNVFSCSVMHEALHNHYTQESLSLSP light: DIVMTQSPLSLPVTPGEPASISCQASESLVHSNRNTYLHWYLQKPGQSPQLLIYKVSNRFSGVPDRFSGSGSGTDFTLKISRVEAEDVGVYYCSQNTHVPPTFGQGTKVEIERTVAAPSVFIFPPSDEQLKSGTASVVCLLNNFYPREAKVQWKVDNALQSGNSQESVTEQDSKDSTYSLSSTLTLSKADYEKHKVYACEVTHQGLSSPVTKSFNRGEC"
,"150 relative, GpH7-A5/GpH7-B3/GpL16-k0 = 100",,,,"GpH7-TA8/GpH7-B3/GpL16-k0 (antibody, human IgG1, kappa, Anti-glypican-3 IgG1 heterodimer; L234Y/G236W/S298A/P329R all in H1) heavy 1: QVQLVQSGAEVKKPGASVTVSCKASGYTFTDYEMHWIRQPPGEGLEWIGAIDPKTGDTAYSESFQDRVTLTADKSTSTAYMELSSLTSEDTAVYYCTRFYSYTYWGQGTLVTVSSASTKGPSVFPLAPSSKSTSGGTAALGCLVKDYFPEPVTVSWNSGALTSGVHTFPAVLQSSGLYSLSSVVTVPSSSLGTQTYICNVNHKPSNTKVDKKVEPKSCDKTHTCPPCPAPEYLWGPSVFLFPPKPKDTLMISRTPEVTCVVVDVSHEDPEVKFNWYVDGVEVHNAKTKPREEQYNATYRVVSVLTVLHQDWLNGKEYKCKVSNKALRAPIEKTISKAKGQPREPQVYTLPPSRKELTKNQVSLTCLVKGFYPSDIAVEWESNGQPENNYKTTPPVLDSDGSFFLYSKLTVDKSRWQQGNVFSCSVMHEALHNRYTQKSLSLSP heavy 2: not shown light: DIVMTQSPLSLPVTPGEPASISCQASESLVHSNRNTYLHWYLQKPGQSPQLLIYKVSNRFSGVPDRFSGSGSGTDFTLKISRVEAEDVGVYYCSQNTHVPPTFGQGTKVEIERTVAAPSVFIFPPSDEQLKSGTASVVCLLNNFYPREAKVQWKVDNALQSGNSQESVTEQDSKDSTYSLSSTLTLSKADYEKHKVYACEVTHQGLSSPVTKSFNRGEC"
